Data taken from patent publication US20030108554A1 (published 2003).

Columns and labels:
Assay in all cases: yeast two-hybrid
[1] = molecular target: T1, DOC1-related protein (human, UniProt Q4L180 241-1128)
T1 sequence: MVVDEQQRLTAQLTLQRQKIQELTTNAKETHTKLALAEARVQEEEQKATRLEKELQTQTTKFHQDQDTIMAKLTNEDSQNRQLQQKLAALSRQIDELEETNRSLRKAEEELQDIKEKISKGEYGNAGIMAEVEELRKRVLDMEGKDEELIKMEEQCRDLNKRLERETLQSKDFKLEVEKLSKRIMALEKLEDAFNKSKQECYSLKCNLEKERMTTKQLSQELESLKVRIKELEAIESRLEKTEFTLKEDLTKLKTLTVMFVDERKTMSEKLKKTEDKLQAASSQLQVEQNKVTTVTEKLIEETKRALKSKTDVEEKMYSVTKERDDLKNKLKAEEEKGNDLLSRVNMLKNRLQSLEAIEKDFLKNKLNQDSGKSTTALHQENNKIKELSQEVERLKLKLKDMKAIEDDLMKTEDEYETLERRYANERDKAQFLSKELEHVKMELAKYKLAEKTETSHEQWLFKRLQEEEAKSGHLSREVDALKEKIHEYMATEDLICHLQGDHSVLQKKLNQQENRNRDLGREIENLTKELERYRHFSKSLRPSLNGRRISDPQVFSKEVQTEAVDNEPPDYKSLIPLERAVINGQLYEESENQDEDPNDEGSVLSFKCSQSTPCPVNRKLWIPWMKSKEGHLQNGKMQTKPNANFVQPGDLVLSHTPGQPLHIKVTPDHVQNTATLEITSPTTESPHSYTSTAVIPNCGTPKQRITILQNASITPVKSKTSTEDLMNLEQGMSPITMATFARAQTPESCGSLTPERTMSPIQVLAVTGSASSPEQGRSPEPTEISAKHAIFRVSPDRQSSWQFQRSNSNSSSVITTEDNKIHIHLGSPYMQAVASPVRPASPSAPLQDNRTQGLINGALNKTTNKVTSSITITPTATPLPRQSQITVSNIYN

[2] = molecular target: T2, GIP130b with deletion of the N terminal 240-residues (human, UniProt Q4L180 241-1128)
T2 sequence: T1 sequence

[3] = molecular target: T3, pol κ (UniProt Q9UBT6 1-870)
T3 construct: Tested in yeast two-hybrid (GAL4 domain fusion); also called primary protein product of the POLK
T3 sequence (looked up): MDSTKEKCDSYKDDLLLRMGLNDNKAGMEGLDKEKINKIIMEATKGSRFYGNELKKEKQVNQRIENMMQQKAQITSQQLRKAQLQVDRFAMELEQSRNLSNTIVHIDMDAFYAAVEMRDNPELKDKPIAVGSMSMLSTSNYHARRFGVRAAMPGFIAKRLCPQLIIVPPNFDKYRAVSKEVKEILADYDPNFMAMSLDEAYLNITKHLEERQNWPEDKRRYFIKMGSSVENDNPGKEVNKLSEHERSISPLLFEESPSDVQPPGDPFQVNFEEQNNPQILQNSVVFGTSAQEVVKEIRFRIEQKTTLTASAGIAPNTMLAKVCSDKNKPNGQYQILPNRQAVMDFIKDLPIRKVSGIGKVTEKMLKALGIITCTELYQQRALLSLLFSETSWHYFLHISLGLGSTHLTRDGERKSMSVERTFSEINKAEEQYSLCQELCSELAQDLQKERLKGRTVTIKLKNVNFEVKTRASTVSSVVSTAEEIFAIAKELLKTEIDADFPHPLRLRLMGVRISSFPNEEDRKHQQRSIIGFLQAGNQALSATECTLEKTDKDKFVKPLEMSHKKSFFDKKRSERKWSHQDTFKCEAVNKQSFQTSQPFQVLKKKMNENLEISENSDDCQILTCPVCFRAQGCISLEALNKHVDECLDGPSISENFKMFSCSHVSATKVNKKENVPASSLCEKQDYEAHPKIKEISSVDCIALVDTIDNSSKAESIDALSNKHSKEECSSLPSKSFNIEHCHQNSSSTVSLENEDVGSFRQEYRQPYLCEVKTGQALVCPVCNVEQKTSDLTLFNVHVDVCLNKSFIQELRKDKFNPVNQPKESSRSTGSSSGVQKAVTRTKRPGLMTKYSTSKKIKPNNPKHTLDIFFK

Measured: binding result

B1: Goodpasture antigen binding protein (GPBP) (enzyme, UniProt Q9Y5P4 1-624, looked up)
chain: MSDNQSWNSSGSEEDPETESGPPVERCGVLSKWTNYIHGWQDRWVVLKNNALSYYKSEDETEYGCRGSICLSKAVITPHDFDECRFDISVNDSVWYLRAQDPDHRQQWIDAIEQHKTESGYGSESSLRRHGSMVSLVSGASGYSATSTSSFKKGHSLREKLAEMETFRDILCRQVDTLQKYFDACADAVSKDELQRDKVVEDDEDDFPTTRSDGDFLHSTNGNKEKLFPHVTPKGINGIDFKGEAITFKATTAGILATLSHCIELMVKREDSWQKRLDKETEKKRRTEEAYKNAMTELKKKSHFGGPDYEEGPNSLINEEEFFDAVEAALDRQDKIEEQSQSEKVRLHWPTSLPSGDAFSSVGTHRFVQKPYSRSSSMSSIDLVSASDDVHRFSSQVEEMVQNHMTYSLQDVGGDANWQLVVEEGEMKVYRREVEENGIVLDPLKATHAVKGVTGHEVCNYFWNVDVRNDWETTIENFHVVETLADNAIIIYQTHKRVWPASQRDVLYLSVIRKIPALTENDPETWIVCNFSVDHDSAPLNNRCVRAKINVAMICQTLVSPPEGNQEISRDNILCKITYVANVNPGGWAPASVLRAVAKREYPKFLKRFTSYVQEKTAGKPILF
notes: Protein kinase; Fusion parts are not written as pieces
no binding: [1] | [2] | [3]
